From paper PMC4432300, “Regulation of Oligomeric Organization of the Serotonin 5-Hydroxytryptamine 2C (5-HT2C) Receptor Observed by Spatial Intensity Distribution Analysis*” (The Journal of Biological Chemistry, 2015)
“And” between values parts separate entries of the source, which are not always exact repeats. Equal entries are not always repeated.

Assays:
[1] = biological target: the molecule itself; assay: spatial intensity distribution analysis (SpIDA) of confocal images; basolateral membrane of intact cells treated with antagonist for 90 min at 37 °C (SB242084 50 nM, SB243213 50 nM or RS102221 100 nM); one-population model; QB against monomeric P-M-A206K eGFP
[2] = biological target: the molecule itself; assay: spatial intensity distribution analysis (SpIDA) of confocal images; basolateral membrane of intact cells induced with varying doxycycline, not treated with ligand (also vehicle, and after washout of antagonists with 60 min recovery); one-population model; QB against monomeric P-M-A206K eGFP

B1: human 5-HT2C receptor fused at its carboxyl terminus to A206K eGFP (5-HT2C-A206K eGFP) (receptor, UniProt P28335 33-458, looked up)
chain: IVTDIFNTSDGGRFKFPDGVQNWPALSIVIIIIMTIGGNILVIMAVSMEKKLHNATNYFLMSLAIADMLVGLLVMPLSLLAILYDYVWPLPRYLCPVWISLDVLFSTASIMHLCAISLDRYVAIRNPIEHSRFNSRTKAIMKIAIVWAISIGVSVPIPVIGLRDEEKVFVNNTTCVLNDPNFVLIGSFVAFFIPLTIMVITYCLTIYVLRRQALMLLHGHTEEPPGLSLDFLKCCKRNTAEEENSANPNQDQNARRRKKKERRPRGTMQAINNERKASKVLGIVFFVFLIMWCPFFITNILSVLCEKSCNQKLMEKLLNVFVWIGYVCSGINPLVYTLFNKIYRRAFSNYLRCNYKVEKKPPVRQIPRVAATALSGRELNVNIYRHTNEPVIEKASDNEPGIEMQVENLELPVNPSSVVSERISSV
notes: serotonin 5-hydroxytryptamine 2C (5-HT2C) receptor, human; construct in pEGFPN1, a gift of Dr. K. Herrick-Davis, subcloned into pcDNA5/FRT/TO; also called 5-HT2C-eGFP; serotonin 5-hydroxytryptamine 2C receptor; not shown: A206K eGFP, C-terminal, kept
average quantal brightness relative to monomeric P-M-A206K eGFP, after SB242084 (50 nM, 90 min) [1]: 1.46 fold | average quantal brightness relative to monomeric P-M-A206K eGFP [2]: 1.85 times | stoichiometry N [2]: 2 and 4
